# Measured values taken from the Immune Epitope Database (IEDB).
# How the values were obtained:
# [1] = target: HLA-A*26:01; experiment: IEDB peptide-MHC binding, purified MHC/competitive/radioactivity; filed as Kd, often an IC50 or EC50 that approximates it; ≥ and ≤ were set here for values at or beyond the usual limits of such assays
# [2] = target: HLA-A*30:02; experiment: as above
# [3] = target: HLA-A*24:02; experiment: as above
# [4] = target: HLA-A*01:01; experiment: as above
# [5] = target: HLA-A*29:02; experiment: as above
# [6] = target: HLA-A*23:01; experiment: as above
# [7] = target: HLA-B*44:02; experiment: as above
# [8] = target: HLA-B*40:01; experiment: as above
# [9] = target: HLA-B*44:03; experiment: as above
# [10] = target: HLA-B*53:01; experiment: as above
# [11] = target: HLA-B*07:02; experiment: IEDB peptide-MHC binding, purified MHC/direct/fluorescence; filed as Kd, often an IC50 or EC50 that approximates it; ≥ and ≤ were set here for values at or beyond the usual limits of such assays; settings: source organism: Homo sapiens
# [12] = target: HLA-B*58:01; experiment: as above; settings: source organism: Homo sapiens
# [13] = target: HLA-A*69:01; experiment: as above; settings: source organism: Homo sapiens
# [14] = target: HLA-B*27:05; experiment: as above; settings: source organism: SARS-CoV1
# [15] = target: HLA-A*11:01; experiment: as above; settings: source organism: SARS-CoV1
# [16] = target: HLA-B*15:01; experiment: as above; settings: source organism: SARS-CoV1
# [17] = target: HLA-A*01:01; experiment: as above; settings: source organism: SARS-CoV1
# [18] = target: HLA-A*03:01; experiment: as above; settings: source organism: SARS-CoV1
# [19] = target: HLA-A*68:01; experiment: IEDB peptide-MHC binding, purified MHC/competitive/radioactivity; filed as Kd, often an IC50 or EC50 that approximates it; ≥ and ≤ were set here for values at or beyond the usual limits of such assays; settings: source organism: SARS coronavirus Tor2
# [20] = target: HLA-A*31:01; experiment: as above; settings: source organism: SARS coronavirus Tor2
# [21] = target: HLA-A*11:01; experiment: as above; settings: source organism: SARS coronavirus Tor2
# [22] = target: HLA-A*33:01; experiment: as above; settings: source organism: SARS coronavirus Tor2
# [23] = target: HLA-A*03:01; experiment: as above; settings: source organism: SARS coronavirus Tor2
# [24] = source organism: SARS coronavirus Tor2
# [25] = source organism: Dengue virus 4 Philippines/H241/1956
# [26] = source organism: Dengue virus 1 Brazil/97-11/1997
# [27] = source organism: Dengue virus 3 Martinique/1243/1999
# [28] = source organism: Dengue virus 2 Jamaica/1409/1983
# [29] = source organism: Mammarenavirus guanaritoense
# [30] = source organism: Mammarenavirus choriomeningitidis
# [31] = source organism: Mammarenavirus brazilense
# [32] = source organism: Mammarenavirus lassaense
sequence,measurement,setting,value
LLEKCDLQNY,Kd,[1]; [24],≥ 82800 nM
same,Kd,[2]; [24],7030 nM
same,Kd,[3]; [24],≥ 70300 nM
same,Kd,[4]; [24],70.7 nM
same,Kd,[5]; [24],3260 nM
same,Kd,[6]; [24],≥ 70000 nM
AEYTNSVTNI,Kd,[7]; [25],280 nM
same,Kd,[8]; [25],158 nM
same,Kd,[9]; [25],51.6 nM
LATGPLTTLW,Kd,[10]; [26],98.4 nM
RPAKSMDSL,Kd,[11],146 nM
same,Kd,[12],18800 nM
same,Kd,[13],5060 nM
RYNLPTMCDI,Kd,[1]; [24],≥ 69700 nM
same,Kd,[2]; [24],90 nM
same,Kd,[3]; [24],601 nM
same,Kd,[4]; [24],≥ 70400 nM
same,Kd,[5]; [24],5260 nM
same,Kd,[6]; [24],180 nM
HEEPVPMSTY,Kd,[7]; [27],106 nM
same,Kd,[9]; [27],409 nM
VEMGEAAGI,Kd,[7]; [28],26.5 nM
same,Kd,[8]; [28],268 nM
same,Kd,[9]; [28],206 nM
MYIFFASFYY,Kd,[1]; [24],575 nM
same,Kd,[2]; [24],9.07 nM
same,Kd,[3]; [24],6650 nM
same,Kd,[4]; [24],6700 nM
same,Kd,[5]; [24],0.449 nM
same,Kd,[6]; [24],722 nM
FSGALDTTSY,Kd,[1]; [24],9150 nM
same,Kd,[2]; [24],451 nM
same,Kd,[3]; [24],≥ 70300 nM
same,Kd,[4]; [24],1310 nM
same,Kd,[5]; [24],678 nM
same,Kd,[6]; [24],≥ 70000 nM
LWLLWPVTL,Kd,[1]; [24],≥ 77900 nM
same,Kd,[2]; [24],5030 nM
same,Kd,[4]; [24],≥ 78100 nM
same,Kd,[5]; [24],1840 nM
same,Kd,[6]; [24],7.42 nM
TPELEEEMF,Kd,[10]; [27],1970 nM
KEIGRMLNI,Kd,[7]; [28],418 nM
same,Kd,[8]; [28],216 nM
same,Kd,[9]; [28],417 nM
MTTEDMLSVW,Kd,[1]; [26],2090 nM
same,Kd,[10]; [26],856 nM
LATGPITTLW,Kd,[10]; [27],78.6 nM
METLLLLGL,Kd,[7]; [27],8.98 nM
same,Kd,[8]; [27],81.3 nM
same,Kd,[9]; [27],33.2 nM
VWKSGILQLF,Kd,[3]; [29],62.6 nM
same,Kd,[5]; [29],2560 nM
same,Kd,[6]; [29],16.5 nM
CKDGHVETFY,Kd,[1]; [24],3870 nM
same,Kd,[2]; [24],506 nM
same,Kd,[3]; [24],≥ 70300 nM
same,Kd,[4]; [24],8080 nM
same,Kd,[5]; [24],171 nM
same,Kd,[6]; [24],≥ 70000 nM
RVDFCGKGY,Kd,[1]; [24],7680 nM
same,Kd,[2]; [24],20 nM
same,Kd,[3]; [24],≥ 77600 nM
same,Kd,[5]; [24],9230 nM
same,Kd,[6]; [24],≥ 77800 nM
same,Kd,[14],3890 nM
same,Kd,[15],7730 nM
same,Kd,[16],1090 nM
same,Kd,[17],1000 nM
same,Kd,[18],1890 nM
AELEEGVYR,Kd,[9]; [27],9270 nM
KSAQCFKMFY,Kd,[19],1450 nM
same,Kd,[1]; [24],≥ 86900 nM
same,Kd,[2]; [24],≥ 21200 nM
same,Kd,[20],629 nM
same,Kd,[21],2250 nM
same,Kd,[22],753 nM
same,Kd,[3]; [24],4700 nM
same,Kd,[4]; [24],≥ 89300 nM
same,Kd,[5]; [24],75.3 nM
same,Kd,[6]; [24],5090 nM
same,Kd,[23],5060 nM
WCSQTDYQY,Kd,[1]; [30],≥ 77900 nM
same,Kd,[2]; [30],342 nM
same,Kd,[3]; [30],≥ 77500 nM
same,Kd,[4]; [30],1160 nM
same,Kd,[5]; [30],258 nM
same,Kd,[6]; [30],≥ 77700 nM
QETWNRQDL,Kd,[8]; [26],72.8 nM
EERVILAGPM,Kd,[7]; [28],2280 nM
same,Kd,[8]; [28],2740 nM
MFKTKGRYNL,Kd,[3]; [31],7170 nM
same,Kd,[5]; [31],68.9 nM
same,Kd,[6]; [31],2070 nM
RMVMTTTANW,Kd,[10]; [25],20.5 nM
same,Kd,[6]; [25],52.8 nM
LEELGDGLAM,Kd,[8]; [26],51.2 nM
NELPESLETL,Kd,[8]; [25],246 nM
AGFPAGLTY,Kd,[1]; [32],≥ 77900 nM
same,Kd,[2]; [32],287 nM
same,Kd,[3]; [32],≥ 77500 nM
same,Kd,[4]; [32],≥ 78100 nM
same,Kd,[5]; [32],68.9 nM
same,Kd,[6]; [32],≥ 77700 nM
